From IntAct's records for PubMed 31515488

B1: Low-density lipoprotein receptor class A domain-containing protein 1 (Homo sapiens), Q5T700 (parent)
chain: MNKVFPQGENGYTAAESKAHPGGEAGGGHLCCSRRGACLSASLLLLLATVAALIALVTILGLPSCTPGAQACITLTNRTGFLCHDQRSCIPASGVCDGVRTCTHGEDEDESLCRDVPQSLPHFLVAHCGDPASWIYSDQKCDGTNNCGDCSDELSPVTVCPPCGPGWWRCPSTFFKYCDCIPRHLCRDHVQHCSDWSDEYACPGP
partner: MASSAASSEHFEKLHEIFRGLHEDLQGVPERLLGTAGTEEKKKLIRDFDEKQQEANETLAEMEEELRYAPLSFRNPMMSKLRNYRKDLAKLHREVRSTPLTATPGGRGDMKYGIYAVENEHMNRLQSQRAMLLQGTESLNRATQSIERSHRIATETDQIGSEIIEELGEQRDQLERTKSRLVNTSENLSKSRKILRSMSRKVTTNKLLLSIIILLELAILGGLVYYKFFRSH
B2: Zinc finger and BTB domain-containing protein 43 (Homo sapiens), O43298 (parent)
chain: MEPGTNSFRVEFPDFSSTILQKLNQQRQQGQLCDVSIVVQGHIFRAHKAVLAASSPYFCDQVLLKNSRRIVLPDVMNPRVFENILLSSYTGRLVMPAPEIVSYLTAASFLQMWHVVDKCTEVLEGNPTVLCQKLNHGSDHQSPSSSSYNGLVESFELGSGGHTDFPKAQELRDGENEEESTKDELSSQLTEHEYLPSNSSTEHDRLSTEMASQDGEEGASDSAEFHYTRPMYSKPSIMAHKRWIHVKPERLEQACEGMDVHATYDEHQVTESINTVQTEHTVQPSGVEEDFHIGEKKVEAEFDEQADESNYDEQVDFYGSSMEEFSGERSDGNLIGHRQEAALAAGYSENIEMVTGIKEEASHLGFSATDKLYPCQCGKSFTHKSQRDRHMSMHLGLRPYGCGVCGKKFKMKHHLVGHMKIHTGIKPYECNICAKRFMWRDSFHRHVTSCTKSYEAAKAEQNTTEAN
B3: Protein BTG1 (Homo sapiens), P62324 (parent)
chain: MHPFYTRAATMIGEIAAAVSFISKFLRTKGLTSERQLQTFSQSLQELLAEHYKHHWFPEKPCKGSGYRCIRINHKMDPLIGQAAQRIGLSSQELFRLLPSELTLWVDPYEVSYRIGEDGSICVLYEASPAGGSTQNSTNVQMVDSRISCKEELLLGRTSPSKNYNMMTVSG
B4: MYG1 exonuclease (Homo sapiens), Q9HB07 (parent)
chain: MGHRFLRGLLTLLLPPPPLYTRHRMLGPESVPPPKRSRSKLMAPPRIGTHNGTFHCDEALACALLRLLPEYRDAEIVRTRDPEKLASCDIVVDVGGEYDPRRHRYDHHQRSFTETMSSLSPGKPWQTKLSSAGLIYLHFGHKLLAQLLGTSEEDSMVGTLYDKMYENFVEEVDAVDNGISQWAEGEPRYALTTTLSARVARLNPTWNHPDQDTEAGFKRAMDLVQEEFLQRLDFYQHSWLPARALVEEALAQRFQVDPSGEIVELAKGACPWKEHLYHLESGLSPPVAIFFVIYTDQAGQWRIQCVPKEPHSFQSRLPLPEPWRGLRDEALDQVSGIPGCIFVHASGFIGGHRTREGALSMARATLAQRSYLPQIS
partner: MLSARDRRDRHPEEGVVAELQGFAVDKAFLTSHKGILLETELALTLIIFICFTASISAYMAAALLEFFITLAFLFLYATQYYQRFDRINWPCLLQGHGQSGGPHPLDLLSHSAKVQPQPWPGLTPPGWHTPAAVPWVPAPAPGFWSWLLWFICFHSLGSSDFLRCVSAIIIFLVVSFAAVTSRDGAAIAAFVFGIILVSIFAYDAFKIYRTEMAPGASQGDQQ
B5: Coiled-coil domain-containing protein 33 (Homo sapiens), Q8N5R6-5 (parent)
chain: MGEPGPPSPPAPKAAPGLIDSFSEMNNYRRAMQKMAEDILSLRRQASILEGENRILRSRLAQQEEEEGQGKASEAQNTVSMKQKLLLSELDMKKLRDRVQHLQNELIRKNDREKELLLLYQAQQPQAALLKQYQGKLQKMKALEETVRHQEKVIEKMERVLEDRLQDRSKPPPLNRQQGKPYTGFPMLSASGLPLGSMGENLPVELYSVLLAENAKLRTELDKNRHQQAPIILQQQALPVDPGELGAGGDLTERLQETHGPGHSECTETLPAQDLLSGTSDKFNLLAKLEHAQSRILSLESQLEDSARRWGREKQDLATRLQEQEKGFRHPSNSIIIEQPVSDPPGVAPRGSGGGAGSHRTPKVTGP
partner: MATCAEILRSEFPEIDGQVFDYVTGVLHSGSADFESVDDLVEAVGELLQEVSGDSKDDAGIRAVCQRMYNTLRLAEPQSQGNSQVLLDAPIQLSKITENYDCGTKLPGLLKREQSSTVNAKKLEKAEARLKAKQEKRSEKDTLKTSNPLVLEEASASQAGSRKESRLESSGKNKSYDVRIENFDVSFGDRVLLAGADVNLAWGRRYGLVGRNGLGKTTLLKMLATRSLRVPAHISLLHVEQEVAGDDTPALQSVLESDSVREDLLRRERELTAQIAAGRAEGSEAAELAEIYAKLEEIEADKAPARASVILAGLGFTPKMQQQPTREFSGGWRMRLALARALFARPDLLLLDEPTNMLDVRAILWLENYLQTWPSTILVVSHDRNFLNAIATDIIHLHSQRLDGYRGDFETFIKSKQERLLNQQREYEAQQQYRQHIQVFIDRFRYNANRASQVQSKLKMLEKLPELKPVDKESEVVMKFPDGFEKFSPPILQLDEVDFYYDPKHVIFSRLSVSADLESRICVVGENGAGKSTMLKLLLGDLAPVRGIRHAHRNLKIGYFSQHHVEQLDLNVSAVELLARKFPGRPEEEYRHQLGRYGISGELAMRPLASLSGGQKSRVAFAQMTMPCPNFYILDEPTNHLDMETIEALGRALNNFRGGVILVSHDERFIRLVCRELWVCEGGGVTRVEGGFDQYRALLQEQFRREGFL
B6: Heat shock factor protein 2 (Homo sapiens), Q03933 (parent)
chain: MKQSSNVPAFLSKLWTLVEETHTNEFITWSQNGQSFLVLDEQRFAKEILPKYFKHNNMASFVRQLNMYGFRKVVHIDSGIVKQERDGPVEFQHPYFKQGQDDLLENIKRKVSSSKPEENKIRQEDLTKIISSAQKVQIKQETIESRLSELKSENESLWKEVSELRAKHAQQQQVIRKIVQFIVTLVQNNQLVSLKRKRPLLLNTNGAQKKNLFQHIVKEPTDNHHHKVPHSRTEGLKPRERISDDIIIYDVTDDNADEENIPVIPETNEDVISDPSNCSQYPDIVIVEDDNEDEYAPVIQSGEQNEPARESLSSGSDGSSPLMSSAVQLNGSSSLTSEDPVTMMDSILNDNINLLGKVELLDYLDSIDCSLEDFQAMLSGRQFSIDPDLLVDLFTSSVQMNPTDYINNTKSENKGLETTKNNVVQPVSEEGRKSKSKPDKQLIQYTAFPLLAFLDGNPASSVEQASTTASSEVLSSVDKPIEVDELLDSSLDPEPTQSKLVRLEPLTEAEASEATLFYLCELAPAPLDSDMPLLDS

Variants of: B1
Details: with vti1b_human VTI1B

effect of a mutation on the interaction | Variant
with no effect | E108K

Variants of: B2
Details: with psmd3_human PSMD3, O43242
Chain of psmd3_human PSMD3, O43242 (O43242 whole entry): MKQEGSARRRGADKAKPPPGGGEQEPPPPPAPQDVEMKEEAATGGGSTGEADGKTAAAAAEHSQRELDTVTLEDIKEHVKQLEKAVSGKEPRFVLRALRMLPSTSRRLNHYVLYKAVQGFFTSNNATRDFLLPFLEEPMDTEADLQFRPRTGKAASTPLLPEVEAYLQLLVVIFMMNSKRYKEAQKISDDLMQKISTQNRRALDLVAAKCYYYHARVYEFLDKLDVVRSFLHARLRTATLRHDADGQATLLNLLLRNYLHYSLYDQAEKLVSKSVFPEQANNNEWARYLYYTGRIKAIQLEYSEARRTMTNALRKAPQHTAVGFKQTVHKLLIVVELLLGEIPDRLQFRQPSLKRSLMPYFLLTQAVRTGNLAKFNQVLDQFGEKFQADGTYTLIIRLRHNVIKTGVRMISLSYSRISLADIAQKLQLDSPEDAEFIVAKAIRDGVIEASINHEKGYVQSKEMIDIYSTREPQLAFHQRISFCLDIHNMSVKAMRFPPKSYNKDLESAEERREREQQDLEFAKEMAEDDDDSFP

effect of a mutation on the interaction | Variant
disrupting interaction strength | L151V

Variants of: B2
Details: with traf2_human TRAF2, Q12933
Chain of traf2_human TRAF2, Q12933 (Q12933 whole entry): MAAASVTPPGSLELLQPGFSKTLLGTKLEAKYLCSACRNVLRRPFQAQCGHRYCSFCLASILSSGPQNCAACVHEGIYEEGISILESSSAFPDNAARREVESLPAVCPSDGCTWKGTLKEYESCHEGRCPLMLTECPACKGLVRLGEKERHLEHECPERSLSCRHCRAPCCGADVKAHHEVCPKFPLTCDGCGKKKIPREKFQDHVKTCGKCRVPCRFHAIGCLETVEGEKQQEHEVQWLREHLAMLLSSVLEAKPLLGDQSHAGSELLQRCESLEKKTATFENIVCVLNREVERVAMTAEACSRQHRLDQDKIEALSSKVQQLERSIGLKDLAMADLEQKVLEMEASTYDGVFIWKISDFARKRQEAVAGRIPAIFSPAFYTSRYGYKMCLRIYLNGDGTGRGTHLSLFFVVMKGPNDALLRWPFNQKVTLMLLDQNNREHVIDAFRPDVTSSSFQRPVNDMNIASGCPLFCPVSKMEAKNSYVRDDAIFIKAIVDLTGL

effect of a mutation on the interaction | Variant
disrupting interaction strength | L151V

Variants of: B2
Details: with mo4l2_human MORF4L2, Q15014
Chain of mo4l2_human MORF4L2, Q15014 (Q15014 whole entry): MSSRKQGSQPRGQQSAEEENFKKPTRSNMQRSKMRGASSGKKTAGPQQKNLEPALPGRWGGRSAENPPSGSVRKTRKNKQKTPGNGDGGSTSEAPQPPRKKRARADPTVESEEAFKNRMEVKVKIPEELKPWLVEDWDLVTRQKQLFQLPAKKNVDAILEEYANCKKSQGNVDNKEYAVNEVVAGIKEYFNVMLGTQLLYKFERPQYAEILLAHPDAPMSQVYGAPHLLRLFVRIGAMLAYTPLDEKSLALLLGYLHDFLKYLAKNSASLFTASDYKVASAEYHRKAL

effect of a mutation on the interaction | Variant
disrupting interaction strength | L151V

Variants of: B2
Details: with arrb1_human ARRB1, P49407
Chain of arrb1_human ARRB1, P49407 (P49407 whole entry): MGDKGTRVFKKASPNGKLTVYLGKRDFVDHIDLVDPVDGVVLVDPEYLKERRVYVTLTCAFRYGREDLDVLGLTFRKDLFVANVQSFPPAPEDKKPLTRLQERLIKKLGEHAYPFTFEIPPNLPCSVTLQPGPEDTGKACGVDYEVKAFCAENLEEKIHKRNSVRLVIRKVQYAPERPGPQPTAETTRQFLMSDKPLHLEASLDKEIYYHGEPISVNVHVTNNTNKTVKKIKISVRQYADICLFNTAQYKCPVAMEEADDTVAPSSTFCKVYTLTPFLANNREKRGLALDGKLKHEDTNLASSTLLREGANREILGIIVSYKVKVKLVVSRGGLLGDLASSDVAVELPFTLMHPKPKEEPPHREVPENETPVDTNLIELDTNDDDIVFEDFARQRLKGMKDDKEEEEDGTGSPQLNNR

effect of a mutation on the interaction | Variant
disrupting interaction strength | L151V

Variants of: B3
Details: with cnot8_human CNOT8, Q9UFF9
Chain of cnot8_human CNOT8, Q9UFF9 (Q9UFF9 whole entry): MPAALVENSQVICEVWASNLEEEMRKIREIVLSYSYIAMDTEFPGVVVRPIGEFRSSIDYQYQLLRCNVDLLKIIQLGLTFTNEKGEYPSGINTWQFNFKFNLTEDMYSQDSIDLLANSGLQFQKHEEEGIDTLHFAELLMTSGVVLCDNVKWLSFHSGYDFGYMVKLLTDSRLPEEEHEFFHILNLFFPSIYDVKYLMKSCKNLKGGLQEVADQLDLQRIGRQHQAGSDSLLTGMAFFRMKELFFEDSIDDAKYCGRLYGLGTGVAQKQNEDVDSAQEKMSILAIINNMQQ

effect of a mutation on the interaction | Variant
with no effect | N139S

Variants of: B4
Details: with cklf5_human CMTM5, Q96DZ9

effect of a mutation on the interaction | Variant
with no effect | R243Q
with no effect | R188Q

Variants of: B5
Details: with abcf3_human ABCF3, Q9NUQ8

effect of a mutation on the interaction | Variant
with no effect | M25V
with no effect | P203L
with no effect | G196R
with no effect | R30L

Variants of: B6
Details: with mtus2_human MTUS2, Q5JR59
Chain of mtus2_human MTUS2, Q5JR59 (Q5JR59 whole entry): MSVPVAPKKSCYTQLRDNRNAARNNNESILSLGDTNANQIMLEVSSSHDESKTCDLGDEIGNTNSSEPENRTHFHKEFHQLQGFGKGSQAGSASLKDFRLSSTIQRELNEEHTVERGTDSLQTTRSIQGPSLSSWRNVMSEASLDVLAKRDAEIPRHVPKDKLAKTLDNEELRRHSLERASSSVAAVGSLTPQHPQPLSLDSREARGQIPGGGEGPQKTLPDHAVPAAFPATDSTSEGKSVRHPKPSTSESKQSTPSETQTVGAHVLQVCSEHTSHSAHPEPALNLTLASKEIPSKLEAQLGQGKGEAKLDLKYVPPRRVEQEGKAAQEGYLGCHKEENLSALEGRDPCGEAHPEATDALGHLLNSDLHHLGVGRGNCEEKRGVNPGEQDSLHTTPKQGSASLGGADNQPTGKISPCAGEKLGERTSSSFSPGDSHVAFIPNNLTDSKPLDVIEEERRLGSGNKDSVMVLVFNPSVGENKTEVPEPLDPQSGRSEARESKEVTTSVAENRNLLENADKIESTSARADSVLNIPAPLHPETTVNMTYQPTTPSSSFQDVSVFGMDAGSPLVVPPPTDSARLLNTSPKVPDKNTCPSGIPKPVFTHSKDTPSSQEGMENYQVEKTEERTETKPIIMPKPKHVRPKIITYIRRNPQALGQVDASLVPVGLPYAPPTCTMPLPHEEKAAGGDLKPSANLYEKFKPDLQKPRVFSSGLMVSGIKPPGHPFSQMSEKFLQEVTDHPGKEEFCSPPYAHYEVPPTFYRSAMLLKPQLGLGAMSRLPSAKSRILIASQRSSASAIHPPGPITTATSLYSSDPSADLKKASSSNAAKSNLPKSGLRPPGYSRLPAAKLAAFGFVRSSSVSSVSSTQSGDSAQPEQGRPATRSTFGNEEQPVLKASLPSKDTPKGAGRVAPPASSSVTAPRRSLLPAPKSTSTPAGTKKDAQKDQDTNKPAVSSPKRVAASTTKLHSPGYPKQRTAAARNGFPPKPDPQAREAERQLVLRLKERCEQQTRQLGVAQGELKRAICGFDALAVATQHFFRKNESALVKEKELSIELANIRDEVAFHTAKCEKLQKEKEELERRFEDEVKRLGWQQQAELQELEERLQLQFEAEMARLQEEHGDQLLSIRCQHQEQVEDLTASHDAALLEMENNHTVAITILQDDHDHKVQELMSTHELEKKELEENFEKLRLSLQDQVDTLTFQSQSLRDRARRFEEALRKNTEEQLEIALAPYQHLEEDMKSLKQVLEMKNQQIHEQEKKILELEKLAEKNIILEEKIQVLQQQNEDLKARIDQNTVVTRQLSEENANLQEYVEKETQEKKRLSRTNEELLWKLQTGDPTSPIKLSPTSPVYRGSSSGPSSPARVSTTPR

effect of a mutation on the interaction | Variant
with no effect | D222V
with no effect | V287I
with no effect | Q34H

Variants of: B6
Details: with nup62_human NUP62, P37198
Chain of nup62_human NUP62, P37198 (P37198 whole entry): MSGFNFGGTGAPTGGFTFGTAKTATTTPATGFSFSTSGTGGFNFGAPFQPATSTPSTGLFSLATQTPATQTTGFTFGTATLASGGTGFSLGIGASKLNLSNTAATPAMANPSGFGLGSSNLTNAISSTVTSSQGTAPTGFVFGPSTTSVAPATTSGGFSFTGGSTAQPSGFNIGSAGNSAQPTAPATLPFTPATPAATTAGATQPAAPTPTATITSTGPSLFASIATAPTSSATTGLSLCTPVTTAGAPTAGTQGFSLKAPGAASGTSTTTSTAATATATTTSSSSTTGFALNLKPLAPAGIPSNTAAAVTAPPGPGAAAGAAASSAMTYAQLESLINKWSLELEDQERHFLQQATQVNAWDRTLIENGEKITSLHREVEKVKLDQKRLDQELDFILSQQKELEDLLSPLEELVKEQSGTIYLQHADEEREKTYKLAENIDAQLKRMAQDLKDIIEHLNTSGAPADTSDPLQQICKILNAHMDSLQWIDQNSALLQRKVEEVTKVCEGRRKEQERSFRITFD

effect of a mutation on the interaction | Variant
with no effect | D222V
with no effect | V287I
with no effect | Q34H

Variants of: B6
Details: with wdr5_human WDR5, P61964

effect of a mutation on the interaction | Variant
with no effect | D222V
with no effect | V287I
with no effect | Q34H

Variants of: B6
Details: with tpm3_human TPM3, P06753
Chain of tpm3_human TPM3, P06753 (P06753 whole entry): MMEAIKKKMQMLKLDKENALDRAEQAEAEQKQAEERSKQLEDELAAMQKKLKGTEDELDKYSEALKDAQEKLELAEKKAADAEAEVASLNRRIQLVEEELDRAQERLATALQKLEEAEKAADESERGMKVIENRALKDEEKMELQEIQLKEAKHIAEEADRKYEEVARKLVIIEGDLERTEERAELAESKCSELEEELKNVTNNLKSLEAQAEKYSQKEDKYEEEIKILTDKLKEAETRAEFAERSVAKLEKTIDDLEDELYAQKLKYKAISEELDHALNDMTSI

effect of a mutation on the interaction | Variant
with no effect | D222V
with no effect | V287I
with no effect | Q34H
